In patent publication US20240042006A1 (KOREA UNIVERSITY RESEARCH AND BUSINESS FOUNDATION SEJONG …, published 2024) one finds Kd data, which are given here for four molecules.

To fix the notation:
B1: PCNA2dm (other)
chain: MGSSHHHHHHSSGLVPRGSHMMKAKVIDAVSFSYILRTVGDFLSEANFIVTKEGIRVSGIDPSRVVFLDIFLPSSYFEGFEVSQEKEIIGFKLEDVNDILKRVLKDDTLILSSNESKLTLTFDGEFTRSFELPLIQVESTQPPSVNLEFPFKAQLLTITFADIIDELSDLGEVLNIHSKENKLYFEVIGDLVTVKVELSTDNGTLLEASGADVSSSYGMEYVANTTKMRRASDSMELYFGSQIPLKLRFKLPQEGYGDFYIAPRAD
notes: also called second scaffold fragment 210; PCNA2 S172V/A174V mutant subunit
B2: PCNA2 (other, Sulfolobus solfataricus, UniProt Q97Z84 1-245, looked up)
chain: MKAKVIDAVSFSYILRTVGDFLSEANFIVTKEGIRVSGIDPSRVVFLDIFLPSSYFEGFEVSQEKEIIGFKLEDVNDILKRVLKDDTLILSSNESKLTLTFDGEFTRSFELPLIQVESTQPPSVNLEFPFKAQLLTITFADIIDELSDLGEVLNIHSKENKLYFEVIGDLSTAKVELSTDNGTLLEASGADVSSSYGMEYVANTTKMRRASDSMELYFGSQIPLKLRFKLPQEGYGDFYIAPRAD
notes: also called PCNA2 wild-type subunit

Common to all, as to assay: BLI (BLItz, ForteBio); the partner on the sensor is not stated
On the technique in general: Biolayer interferometry detects binding as a change in optical thickness at a sensor tip.

The target in one assay is T1, PCNA3dm (Sulfolobus solfataricus).
T1 construct: also called third scaffold fragment 310; PCNA3 Y73F/S170V mutant subunit
T1 chain: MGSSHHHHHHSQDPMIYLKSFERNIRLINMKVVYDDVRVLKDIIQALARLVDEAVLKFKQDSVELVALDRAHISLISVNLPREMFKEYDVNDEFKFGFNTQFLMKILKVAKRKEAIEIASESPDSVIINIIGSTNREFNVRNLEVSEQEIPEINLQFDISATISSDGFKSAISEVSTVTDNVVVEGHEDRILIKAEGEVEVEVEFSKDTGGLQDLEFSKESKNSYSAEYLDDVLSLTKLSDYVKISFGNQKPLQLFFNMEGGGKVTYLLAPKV

For the next assay, the target named is T2, PCNA1 (Sulfolobus solfataricus, UniProt P57766 1-249).
T2 construct: also called PCNA1 wild-type subunit
T2 sequence (looked up): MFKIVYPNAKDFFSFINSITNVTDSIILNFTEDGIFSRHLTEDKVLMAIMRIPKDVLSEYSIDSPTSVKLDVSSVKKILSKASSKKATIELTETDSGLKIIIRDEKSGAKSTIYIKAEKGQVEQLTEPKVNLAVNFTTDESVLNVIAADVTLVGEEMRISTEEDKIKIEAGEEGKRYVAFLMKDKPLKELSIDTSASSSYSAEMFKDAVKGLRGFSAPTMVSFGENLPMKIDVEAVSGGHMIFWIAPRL

In the assay “PCNA2” the target is B2.
The assay “PCNA2dm” has as its target B1.

Usually Kd stands for the concentration at which binding is half-saturated. Read a low Kd as a tighter complex. In turn, B1 returned a Kd with PCNA3dm of 571 nM.
The molecule B2 registered a Kd in the assay with PCNA1 of 6.31 nM.

B3: PCNA3 (other, Sulfolobus solfataricus, UniProt P57765 1-244, looked up)
chain: MKVVYDDVRVLKDIIQALARLVDEAVLKFKQDSVELVALDRAHISLISVNLPREMFKEYDVNDEFKFGFNTQYLMKILKVAKRKEAIEIASESPDSVIINIIGSTNREFNVRNLEVSEQEIPEINLQFDISATISSDGFKSAISEVSTVTDNVVVEGHEDRILIKAEGESEVEVEFSKDTGGLQDLEFSKESKNSYSAEYLDDVLSLTKLSDYVKISFGNQKPLQLFFNMEGGGKVTYLLAPKV
notes: also called PCNA3 wild-type subunit
Turning to B3, the Kd with PCNA2 is 3170 nM.

B4: PCNA1dm (other)
chain: MFKIVYPNAKDFFSFINSITNVTDSIILNFTEDGIFSRHLTEDKVLMAIMRIPKDVLSEYSIDSPTSVKLDVSSVKKILSKASSKKATIELTETDSGLKIIIRDEKSGAKSKIKIKAEKGQVEQLTEPKVNLAVNFTTDESVLNVIAADVTLVGEEMRISTEEDKIKIEAGEEGKRYVAFLMKDKPLKELSIDTSASSSYSAEMFKDAVKGLRGFSAPTMVSFGENLPMKIDVEAVSGGHMIFWIAPRL
notes: also called first scaffold fragment 110; PCNA1 T112K/Y114K mutant subunit
As to B4, binding with PCNA2dm was put at a Kd of 2.65 nM.
